Source: US20040220079A1

Target: M2pd (modified M2 containing amino acids from Ala-8p to Ala326) (human) (UniProt P56817)
Assay: cell-based or functional assay

M2pd (modified M2 containing amino acids from Ala-8p to Ala326) (human), sequence (P56817 22-501 limits assumed): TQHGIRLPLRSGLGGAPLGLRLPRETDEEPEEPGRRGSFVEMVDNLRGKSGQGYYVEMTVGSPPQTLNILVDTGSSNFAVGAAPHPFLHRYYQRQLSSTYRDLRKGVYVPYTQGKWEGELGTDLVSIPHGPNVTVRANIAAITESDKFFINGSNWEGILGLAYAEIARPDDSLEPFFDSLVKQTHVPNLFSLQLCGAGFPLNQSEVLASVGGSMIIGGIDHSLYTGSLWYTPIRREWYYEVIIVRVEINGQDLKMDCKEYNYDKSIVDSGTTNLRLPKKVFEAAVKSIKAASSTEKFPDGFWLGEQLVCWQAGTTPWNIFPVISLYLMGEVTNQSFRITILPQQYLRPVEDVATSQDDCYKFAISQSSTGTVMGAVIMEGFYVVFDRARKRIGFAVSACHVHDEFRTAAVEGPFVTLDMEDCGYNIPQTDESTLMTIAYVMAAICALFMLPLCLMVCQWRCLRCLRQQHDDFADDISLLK

Pepstatin A (peptide)
IC50 of inhibition of enzyme activity: 300 µM
